Laboratory results taken from patent US20250361314A1 (SHANGHAI HUAOTA BIOPHARMACEUTICAL, published 2025).

T1: Human CD39 antigen (human, UniProt P49961 38-478)
T1 construct: Antigen used as analyte in SPR; also called ENTPD1
T1 sequence (looked up): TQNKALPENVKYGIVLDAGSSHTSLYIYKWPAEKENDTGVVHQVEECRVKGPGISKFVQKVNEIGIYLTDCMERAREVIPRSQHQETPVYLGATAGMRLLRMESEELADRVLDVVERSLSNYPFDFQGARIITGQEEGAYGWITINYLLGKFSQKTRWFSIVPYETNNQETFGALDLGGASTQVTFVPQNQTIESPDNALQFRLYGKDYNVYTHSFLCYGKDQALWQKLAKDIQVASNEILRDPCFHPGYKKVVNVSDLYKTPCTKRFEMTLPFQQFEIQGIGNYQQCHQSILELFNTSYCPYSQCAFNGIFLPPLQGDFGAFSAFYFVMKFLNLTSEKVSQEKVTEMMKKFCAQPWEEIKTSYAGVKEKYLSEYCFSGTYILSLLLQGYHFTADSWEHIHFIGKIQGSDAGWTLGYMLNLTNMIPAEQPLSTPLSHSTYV

T2: Human CD39 on CHOK1-huCD39-10B6 cells overexpressing CD39 (human, UniProt P49961 1-510)
T2 sequence (looked up): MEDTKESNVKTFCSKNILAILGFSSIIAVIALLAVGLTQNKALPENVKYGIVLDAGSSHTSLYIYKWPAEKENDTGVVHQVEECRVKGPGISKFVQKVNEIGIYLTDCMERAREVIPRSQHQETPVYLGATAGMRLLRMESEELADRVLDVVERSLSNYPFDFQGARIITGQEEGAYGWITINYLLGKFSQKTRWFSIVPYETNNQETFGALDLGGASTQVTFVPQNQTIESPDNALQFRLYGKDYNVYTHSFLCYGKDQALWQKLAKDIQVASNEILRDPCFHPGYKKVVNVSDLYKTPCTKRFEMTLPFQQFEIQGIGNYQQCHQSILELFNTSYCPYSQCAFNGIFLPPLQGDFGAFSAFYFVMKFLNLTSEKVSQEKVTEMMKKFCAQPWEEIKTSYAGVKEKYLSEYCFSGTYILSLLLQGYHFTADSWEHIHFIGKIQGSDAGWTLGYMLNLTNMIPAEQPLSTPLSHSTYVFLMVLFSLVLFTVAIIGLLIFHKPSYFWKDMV

T3: Human CD73 antigen (human, UniProt P21589 27-547, limits assumed)
T3 construct: Antigen used as analyte in SPR; also called NT5E
T3 sequence (looked up): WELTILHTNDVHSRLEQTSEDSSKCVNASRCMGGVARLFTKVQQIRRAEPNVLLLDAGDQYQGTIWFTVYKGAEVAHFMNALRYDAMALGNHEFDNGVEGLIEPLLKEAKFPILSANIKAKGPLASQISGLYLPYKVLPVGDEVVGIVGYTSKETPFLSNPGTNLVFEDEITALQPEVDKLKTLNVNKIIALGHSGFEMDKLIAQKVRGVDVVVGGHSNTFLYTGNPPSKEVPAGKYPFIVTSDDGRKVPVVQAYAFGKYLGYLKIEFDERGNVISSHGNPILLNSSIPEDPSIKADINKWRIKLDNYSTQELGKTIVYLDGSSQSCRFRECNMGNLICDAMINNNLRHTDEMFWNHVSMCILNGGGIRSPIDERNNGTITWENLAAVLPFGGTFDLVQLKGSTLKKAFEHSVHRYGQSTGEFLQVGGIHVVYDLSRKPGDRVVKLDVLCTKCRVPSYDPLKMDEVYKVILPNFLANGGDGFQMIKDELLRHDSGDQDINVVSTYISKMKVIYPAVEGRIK

T4: Human CD73 on CHOK1-huCD73-3F4 cells overexpressing CD73 (human, UniProt P21589 27-549)
T4 sequence (looked up): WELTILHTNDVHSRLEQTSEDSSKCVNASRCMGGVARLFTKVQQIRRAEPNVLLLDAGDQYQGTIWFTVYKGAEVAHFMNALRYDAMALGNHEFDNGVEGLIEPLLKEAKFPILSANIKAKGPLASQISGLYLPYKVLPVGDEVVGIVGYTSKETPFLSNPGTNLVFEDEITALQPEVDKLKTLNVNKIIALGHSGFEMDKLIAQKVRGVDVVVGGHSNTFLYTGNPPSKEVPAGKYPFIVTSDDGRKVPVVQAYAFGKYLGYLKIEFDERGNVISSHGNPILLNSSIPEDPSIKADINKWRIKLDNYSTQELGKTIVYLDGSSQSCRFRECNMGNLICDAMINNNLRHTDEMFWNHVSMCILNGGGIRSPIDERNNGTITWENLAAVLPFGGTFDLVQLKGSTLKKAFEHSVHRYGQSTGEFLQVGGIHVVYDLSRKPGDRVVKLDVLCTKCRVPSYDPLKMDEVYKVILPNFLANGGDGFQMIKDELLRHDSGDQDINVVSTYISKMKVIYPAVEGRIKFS

B1: 700053 (CD39 nanobody) (VHH)
VHH: QVQLVESGGGLVQPGGSLRLSCAASGSISSIAAMGWYRQAPGKERELVAAITSGGNTNLADSTKGRFTISRDNTKNTVYLQMNSLKPEDTAVYYCNAWGEDDSSWFGTDLCDYWGQGTQVTVSS
notes: In the SPR it was captured on an anti-human antibody capture chip, so the tested construct may carry a human Fc
B2: 900725 (CD73 parental monoclonal antibody corresponding to 700035) (antibody, human IgG1, kappa, L234A L235A, V domains shown)
VH: QVQLVQSGAEVKKPGASVKLSCKASGYTFTSYWIHWVRQAPGQGLEWIGMIHPNSGSTYYNEKFKGRATLTVDKSTSTAYMELSSLRSEDTAVYYCARYYGSDYEWYFDVWGQGTTVTVSS
VL: DIQMTQSPSSMSASVGDRVTITCKASQNVRTAVVWYQQKPGKAPKALIYLASNRHTGVPDRFSGSGSGTDFTLTISSLQPEDFATYFCLQHWNYPYTFGQGTKLEIKR
B3: 900698 (CD73 parental monoclonal antibody corresponding to 700038) (antibody, human IgG1, kappa, L234A L235A, V domains shown)
VH: QVQLVESGGGLVKPGGSLRLSCAASGFTFSKYAMSWIRQAPGKGLEWVAEISSGGGYINYADSVKGRFTISRDNAKNSLYLQMNSLRAEDTAVYYCARAIYYYGSSYNYYAMDYWGQGTTVTVSS
VL: DIQMTQSPSSLSASVGDRVTITCRASQDVGTAEAWYQQKPGKAPKLLIYWASTRHTGVPSRFSGSGSGTDFTLTISSLQPEDFATYYCQQYSSYPLTFGQGTKLEIKR

Assays:
[1] = target: T1, Human CD39 antigen; test: SPR (Biacore 8K), antibody captured on anti-human capture CM5 chip, antigen as analyte, 1:1 model
Method: (§1) An Anti-Human Capture-CM5 chip (GE, #BR-1005-30) was prepared using coupling methods of a Human Antibody Capture Kit (GE, #BR-1008-39) and an amino coupling kit (GE, BR-1000-50). The chip was equilibrated at room temperature for 20-30 mins and loaded into a Biacore 8K instrument. The antigen and antibody were diluted to an experimental working concentration using an equilibration buffer. The antigens were diluted with the equilibrium buffer to 50 nM, and then diluted three-fold for seven concentration gradients, and two zero concentrations (i.e., the equilibrium buffer) and one repeat concentration (typically the lowest concentration repeat) were set. Experimental analysis was performed on 10 antigen concentrations (2 zero concentrations, 7 gradient concentrations, and 1 repeated concentration) in a cyclic manner according to an order of antibody, antigen, and regeneration. The antigen injection flow rate was 30 μL/min, the binding time was 120 s, and the dissociation time was 600 s. Following the analysis, the data was analyzed using the corresponding analysis program to confirm that there was no obvious reference binding. Using Kinetics and a 1:1 binding model, the data was fit to obtain the kinetic related parameters Ka, Kd, and KD values of the bispecific antibodies and parental control antibodies.

[2] = target: T2, Human CD39 on CHOK1-huCD39-10B6 cells …; test: cell-based or functional assay
[3] = target: T3, Human CD73 antigen; test: SPR (Biacore 8K), antibody captured on anti-human capture CM5 chip, antigen as analyte, 1:1 model
Method: as §1

[4] = target: T4, Human CD73 on CHOK1-huCD73-3F4 cells …; test: cell-based or functional assay
[5] = target: soluble recombinant protein CD73; test: cell-based or functional assay
Sequence of soluble recombinant protein CD73 (P21589 whole entry): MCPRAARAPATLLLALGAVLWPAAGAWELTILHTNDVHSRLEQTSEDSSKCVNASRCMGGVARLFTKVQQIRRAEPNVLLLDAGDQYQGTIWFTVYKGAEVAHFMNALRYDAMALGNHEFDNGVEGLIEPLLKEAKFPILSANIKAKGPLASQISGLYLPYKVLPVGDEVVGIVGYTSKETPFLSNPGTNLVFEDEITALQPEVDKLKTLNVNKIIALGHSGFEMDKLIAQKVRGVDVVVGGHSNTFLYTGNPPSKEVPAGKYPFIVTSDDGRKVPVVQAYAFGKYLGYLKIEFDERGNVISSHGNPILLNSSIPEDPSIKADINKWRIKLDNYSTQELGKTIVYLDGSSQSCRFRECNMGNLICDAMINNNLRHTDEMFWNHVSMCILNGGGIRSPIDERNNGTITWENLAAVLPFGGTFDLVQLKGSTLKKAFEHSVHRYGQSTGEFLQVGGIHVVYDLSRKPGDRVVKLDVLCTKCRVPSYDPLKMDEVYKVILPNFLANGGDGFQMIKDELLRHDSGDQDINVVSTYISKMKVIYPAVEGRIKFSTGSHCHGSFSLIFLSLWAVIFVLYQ

Row | Binder | Kd [1] [pM] | koff [1] [s⁻¹] | kon [1] [M⁻¹ s⁻¹] | EC50 (µg/mL), inhibition of CD39 ATPase activity on CHOK1-huCD39-10B6 cells (CellTiter Glo) [2] [µg/mL] | Kd [3] [pM] | koff [3] [s⁻¹] | kon [3] [M⁻¹ s⁻¹] | EC50 (µg/mL), inhibition of enzyme activity of membrane CD73 on CHOK1-huCD73-3F4 cells (CellTiter Glo) [4] [µg/mL] | EC50 (µg/mL), inhibition of enzyme activity of soluble CD73 protein (CellTiter Glo) [5] [µg/mL]
1 | B1 | 140 | 0.000102 | 730000 | 0.558 |  |  |  |  | 
2 | B2 |  |  |  |  | 184 | 0.000182 | 988000 | 0.32 | 
3 | B3 |  |  |  |  | 382 | 0.000215 | 561000 |  | 1.74
